Where “and” joins values, the source holds several entries; their conditions need not be identical. Equal values may be shown once. * marks the point of attachment. Palmitoyl = CCCCCCCCCCCCCCCC(=O)*
B1: Compound 7 (peptide)
peptide: Palmitoyl-AYFRRLHSTRNYIH-NH2
SMILES: CCCCCCCCCCCCCCCC(=O)N[C@@H](C)C(=O)N[C@@H](Cc1ccc(O)cc1)C(=O)N[C@@H](Cc1ccccc1)C(=O)N[C@@H](CCCNC(=N)N)C(=O)N[C@@H](CCCNC(=N)N)C(=O)N[C@@H](CC(C)C)C(=O)N[C@@H](Cc1c[nH]cn1)C(=O)N[C@@H](CO)C(=O)N[C@H](C(=O)N[C@@H](CCCNC(=N)N)C(=O)N[C@@H](CC(N)=O)C(=O)N[C@@H](Cc1ccc(O)cc1)C(=O)N[C@H](C(=O)N[C@@H](Cc1c[nH]cn1)C(N)=O)[C@@H](C)CC)[C@@H](C)O
B2: Compound 38 (peptide)
peptide: Palmitoyl-LYLHSLIFMAFFSEKKYLWG-NH2
SMILES: CCCCCCCCCCCCCCCC(=O)N[C@@H](CC(C)C)C(=O)N[C@@H](Cc1ccc(O)cc1)C(=O)N[C@@H](CC(C)C)C(=O)N[C@@H](Cc1c[nH]cn1)C(=O)N[C@@H](CO)C(=O)N[C@@H](CC(C)C)C(=O)N[C@H](C(=O)N[C@@H](Cc1ccccc1)C(=O)N[C@@H](CCSC)C(=O)N[C@@H](C)C(=O)N[C@@H](Cc1ccccc1)C(=O)N[C@@H](Cc1ccccc1)C(=O)N[C@@H](CO)C(=O)N[C@@H](CCC(=O)O)C(=O)N[C@@H](CCCCN)C(=O)N[C@@H](CCCCN)C(=O)N[C@@H](Cc1ccc(O)cc1)C(=O)N[C@@H](CC(C)C)C(=O)N[C@@H](Cc1c[nH]c2ccccc12)C(=O)NCC(N)=O)[C@@H](C)CC
B3: Compound 51 (peptide)
peptide: Palmitoyl-RETNAGRSDTRQQYRKLLKS-NH2
SMILES: CCCCCCCCCCCCCCCC(=O)N[C@@H](CCCNC(=N)N)C(=O)N[C@@H](CCC(=O)O)C(=O)N[C@H](C(=O)N[C@@H](CC(N)=O)C(=O)N[C@@H](C)C(=O)NCC(=O)N[C@@H](CCCNC(=N)N)C(=O)N[C@@H](CO)C(=O)N[C@@H](CC(=O)O)C(=O)N[C@H](C(=O)N[C@@H](CCCNC(=N)N)C(=O)N[C@@H](CCC(N)=O)C(=O)N[C@@H](CCC(N)=O)C(=O)N[C@@H](Cc1ccc(O)cc1)C(=O)N[C@@H](CCCNC(=N)N)C(=O)N[C@@H](CCCCN)C(=O)N[C@@H](CC(C)C)C(=O)N[C@@H](CC(C)C)C(=O)N[C@@H](CCCCN)C(=O)N[C@@H](CO)C(N)=O)[C@@H](C)O)[C@@H](C)O
B4: Compound 53 (peptide)
peptide: Palmitoyl-KLRETNAGRSDTRQQY-NH2
SMILES: CCCCCCCCCCCCCCCC(=O)N[C@@H](CCCCN)C(=O)N[C@@H](CC(C)C)C(=O)N[C@@H](CCCNC(=N)N)C(=O)N[C@@H](CCC(=O)O)C(=O)N[C@H](C(=O)N[C@@H](CC(N)=O)C(=O)N[C@@H](C)C(=O)NCC(=O)N[C@@H](CCCNC(=N)N)C(=O)N[C@@H](CO)C(=O)N[C@@H](CC(=O)O)C(=O)N[C@H](C(=O)N[C@@H](CCCNC(=N)N)C(=O)N[C@@H](CCC(N)=O)C(=O)N[C@@H](CCC(N)=O)C(=O)N[C@@H](Cc1ccc(O)cc1)C(N)=O)[C@@H](C)O)[C@@H](C)O
B5: Compound 33 (peptide)
peptide: Palmitoyl-HSLIFMAFFSEKKYL-NH2
SMILES: CCCCCCCCCCCCCCCC(=O)N[C@@H](Cc1c[nH]cn1)C(=O)N[C@@H](CO)C(=O)N[C@@H](CC(C)C)C(=O)N[C@H](C(=O)N[C@@H](Cc1ccccc1)C(=O)N[C@@H](CCSC)C(=O)N[C@@H](C)C(=O)N[C@@H](Cc1ccccc1)C(=O)N[C@@H](Cc1ccccc1)C(=O)N[C@@H](CO)C(=O)N[C@@H](CCC(=O)O)C(=O)N[C@@H](CCCCN)C(=O)N[C@@H](CCCCN)C(=O)N[C@@H](Cc1ccc(O)cc1)C(=O)N[C@@H](CC(C)C)C(N)=O)[C@@H](C)CC
B6: Compound 37 (peptide)
peptide: Palmitoyl-LHSLIFMAFFSEKKYLWGFT-NH2
SMILES: CCCCCCCCCCCCCCCC(=O)N[C@@H](CC(C)C)C(=O)N[C@@H](Cc1c[nH]cn1)C(=O)N[C@@H](CO)C(=O)N[C@@H](CC(C)C)C(=O)N[C@H](C(=O)N[C@@H](Cc1ccccc1)C(=O)N[C@@H](CCSC)C(=O)N[C@@H](C)C(=O)N[C@@H](Cc1ccccc1)C(=O)N[C@@H](Cc1ccccc1)C(=O)N[C@@H](CO)C(=O)N[C@@H](CCC(=O)O)C(=O)N[C@@H](CCCCN)C(=O)N[C@@H](CCCCN)C(=O)N[C@@H](Cc1ccc(O)cc1)C(=O)N[C@@H](CC(C)C)C(=O)N[C@@H](Cc1c[nH]c2ccccc12)C(=O)NCC(=O)N[C@@H](Cc1ccccc1)C(=O)N[C@H](C(N)=O)[C@@H](C)O)[C@@H](C)CC
B7: Compound 52 (peptide)
peptide: Palmitoyl-TNAGRSDTRQQYRKLLKSTL-NH2
SMILES: CCCCCCCCCCCCCCCC(=O)N[C@H](C(=O)N[C@@H](CC(N)=O)C(=O)N[C@@H](C)C(=O)NCC(=O)N[C@@H](CCCNC(=N)N)C(=O)N[C@@H](CO)C(=O)N[C@@H](CC(=O)O)C(=O)N[C@H](C(=O)N[C@@H](CCCNC(=N)N)C(=O)N[C@@H](CCC(N)=O)C(=O)N[C@@H](CCC(N)=O)C(=O)N[C@@H](Cc1ccc(O)cc1)C(=O)N[C@@H](CCCNC(=N)N)C(=O)N[C@@H](CCCCN)C(=O)N[C@@H](CC(C)C)C(=O)N[C@@H](CC(C)C)C(=O)N[C@@H](CCCCN)C(=O)N[C@@H](CO)C(=O)N[C@H](C(=O)N[C@@H](CC(C)C)C(N)=O)[C@@H](C)O)[C@@H](C)O)[C@@H](C)O
B8: Compound 49 (peptide)
peptide: Palmitoyl-TNAGRSDTRQQRKLLKSTL-NH2
SMILES: CCCCCCCCCCCCCCCC(=O)N[C@H](C(=O)N[C@@H](CC(N)=O)C(=O)N[C@@H](C)C(=O)NCC(=O)N[C@@H](CCCNC(=N)N)C(=O)N[C@@H](CO)C(=O)N[C@@H](CC(=O)O)C(=O)N[C@H](C(=O)N[C@@H](CCCNC(=N)N)C(=O)N[C@@H](CCC(N)=O)C(=O)N[C@@H](CCC(N)=O)C(=O)N[C@@H](CCCNC(=N)N)C(=O)N[C@@H](CCCCN)C(=O)N[C@@H](CC(C)C)C(=O)N[C@@H](CC(C)C)C(=O)N[C@@H](CCCCN)C(=O)N[C@@H](CO)C(=O)N[C@H](C(=O)N[C@@H](CC(C)C)C(N)=O)[C@@H](C)O)[C@@H](C)O)[C@@H](C)O
B9: Compound 9 (peptide)
peptide: Palmitoyl-LAYFRRLHSTRNYI-NH2
SMILES: CCCCCCCCCCCCCCCC(=O)N[C@@H](CC(C)C)C(=O)N[C@@H](C)C(=O)N[C@@H](Cc1ccc(O)cc1)C(=O)N[C@@H](Cc1ccccc1)C(=O)N[C@@H](CCCNC(=N)N)C(=O)N[C@@H](CCCNC(=N)N)C(=O)N[C@@H](CC(C)C)C(=O)N[C@@H](Cc1c[nH]cn1)C(=O)N[C@@H](CO)C(=O)N[C@H](C(=O)N[C@@H](CCCNC(=N)N)C(=O)N[C@@H](CC(N)=O)C(=O)N[C@@H](Cc1ccc(O)cc1)C(=O)N[C@H](C(N)=O)[C@@H](C)CC)[C@@H](C)O

Target: PTHR1 receptor
Sequence (P25961 whole entry): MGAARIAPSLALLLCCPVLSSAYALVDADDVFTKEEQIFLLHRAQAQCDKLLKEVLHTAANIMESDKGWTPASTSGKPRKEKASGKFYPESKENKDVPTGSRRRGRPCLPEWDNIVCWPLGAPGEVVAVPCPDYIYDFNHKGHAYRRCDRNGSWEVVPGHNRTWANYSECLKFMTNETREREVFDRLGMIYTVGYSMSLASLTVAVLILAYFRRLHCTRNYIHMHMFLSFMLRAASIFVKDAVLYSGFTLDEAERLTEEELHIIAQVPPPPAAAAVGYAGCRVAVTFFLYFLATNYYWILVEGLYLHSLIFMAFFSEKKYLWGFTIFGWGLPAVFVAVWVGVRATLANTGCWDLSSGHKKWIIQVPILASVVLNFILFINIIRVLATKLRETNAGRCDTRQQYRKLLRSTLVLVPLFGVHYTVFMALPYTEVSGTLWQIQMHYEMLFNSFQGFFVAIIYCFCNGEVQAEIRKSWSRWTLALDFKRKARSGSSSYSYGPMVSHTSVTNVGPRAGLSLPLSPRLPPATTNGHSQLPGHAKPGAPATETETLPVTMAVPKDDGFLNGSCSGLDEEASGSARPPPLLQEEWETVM

| Fold Shift of EC50 | Inhibition of Maximal Response | Binder |
| --- | --- | --- |
| 1.2 fold | 36% | B1 |
| 1.1 fold | 21.9% | B2 |
| 12.4 fold | -0.015 | B3 |
| 2.1 fold | 6.4% | B4 |
| 1.1 fold | 27.5% | B5 |
| 1.1 fold | 35.6% | B6 |
| 11.1 fold | 1.7% | B7 |
| 1.5 fold and 2.3 fold |  | B8 |
| 1.1 fold | 12.7% | B9 |

Reference: patent publication US20110294738A1, “PTHR1 RECEPTOR COMPOUNDS” (priority 2008, published 2011)
